In patent US9518268B2, “Drought tolerant transgenic plants and method of making same” (PURDUE RESEARCH FOUNDATION, priority 2013, dated 2016):
Where two headings read alike, the source gives them in different places.

T1: ABI1 (Arabidopsis thaliana, UniProt P49597+Q8H1R0)
T1 sequence (P49597 1-434): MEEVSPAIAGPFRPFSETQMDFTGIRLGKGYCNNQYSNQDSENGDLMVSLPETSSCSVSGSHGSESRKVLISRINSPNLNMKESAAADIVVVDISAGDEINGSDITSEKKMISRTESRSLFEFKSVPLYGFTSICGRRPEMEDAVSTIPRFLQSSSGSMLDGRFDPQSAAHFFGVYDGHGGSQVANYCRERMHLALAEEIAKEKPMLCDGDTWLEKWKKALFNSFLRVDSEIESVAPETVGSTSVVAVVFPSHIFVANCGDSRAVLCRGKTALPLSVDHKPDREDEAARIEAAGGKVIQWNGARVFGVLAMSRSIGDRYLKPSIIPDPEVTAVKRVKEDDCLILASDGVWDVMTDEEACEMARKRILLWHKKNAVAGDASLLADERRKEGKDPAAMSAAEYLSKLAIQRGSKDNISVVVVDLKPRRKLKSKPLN
T1 sequence (Q8H1R0 1-183): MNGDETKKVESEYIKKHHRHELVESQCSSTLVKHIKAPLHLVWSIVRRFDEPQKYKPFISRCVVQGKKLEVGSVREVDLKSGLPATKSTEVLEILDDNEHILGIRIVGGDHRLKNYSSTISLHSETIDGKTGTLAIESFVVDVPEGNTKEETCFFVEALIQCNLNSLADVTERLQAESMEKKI


Key:
[1] = tested on: ABI1; experiment: Phosphatase activity assay (pNPP) with purified PP2Cs and PYLs; format: biochemical, Arabidopsis thaliana; conditions: in the presence of 10 μM ABA; ABI1 and PYLs 0.3 μM
Procedure: The inhibition by PYL13 is ABA-independent, whereas the inhibition by PYR1 and PYL2 is ABA-induced (FIG. 4B). […] The phosphatase activities of PP2CA, ABI1, and ABI2 were measured in the absence or presence of ABA (1.25 μM), and with or without PYLs. The concentration of PP2Cs and PYLs was 0.3 μM. The A405 value of reaction without PP2C was set as 0% and that of the reaction with PP2C but without ABA and PYLs was set as 100%. Error bars indicate s.e.m. (n=6 for PP2CA and ABI2, and n=3 for ABI1).
To test the functional significance of potential heterodimer formation between PYL13 and other PYLs, the abilities of PYL1 and PYL2 and the protein complexes PYL13-PYL1 and PYL13-PYL2 to inhibit the phosphatase activity of ABI1 were compared using purified recombinant proteins and the synthetic phosphatase substrate pNPP. […] The phosphatase activity of ABI1 was measured (using pNPP) in the absence or presence of 10 μM ABA, with or without PYLs, and with PYL13-PYL dimers. The concentration of ABI1 and PYLs was 0.3 μM. The A405 value of reaction without ABI1 was set as 0% and that of the reaction with ABI1 but without ABA and PYLs was set as 100%. Error bars indicate s.e.m. (n=6). In the presence of 10 μM ABA, ABI1 phosphatase activity was reduced to 67±6% by PYL1 but only to 88±8% by PYL13-PYL1. In the presence of 10 μM ABA, ABI1 phosphatase activity was reduced to 50±3% by PYL2 but only to 78±10% by PYL13-PYL2.
Phosphatase activity was measured using the colorimetric substrate p-nitrophenyl phosphate (pNPP, SIGMA). Reactions were performed in a reaction buffer containing 50 mM Tris-HCl, pH 7.5, 25 mM Mg(OAc)2, 2 mM MnCl2, 0.5 mM EGTA, 0.5% β-mercaptoethanol, and 0.5% BSA. ABA and PYLs were added as indicated. The concentration of PP2Cs and PYLs was 0.3 μM. Reactions were initiated by the addition of pNPP to a final concentration of 50 mM. The hydrolysis of pNPP was measured by following the absorbance at 405 nm (A405). Because His-PYL13 is difficult to purify, is prone to degradation, and rapidly loses activity, newly purified PYL13 was used for the phosphatase activity assay.

[2] = molecular target: T1, ABI1; conditions: read-out: dissociation constant (Kd) of PYL10-ABI1 interaction, cited from earlier work

Molecule	ABI1 phosphatase activity reduced to [1]	Kd ([2]; with ABA)	Kd ([2]; without ABA)
PYL13-PYL1: protein complex (heterodimer) of purified recombinant PYL13 and PYL1	88±8%		
PYL1: Arabidopsis thaliana PYL family ABA receptor protein PYL1, AT5G46790	67±6%		
PYL13-PYL2: protein complex (heterodimer) of purified recombinant PYL13 and PYL2	78±10%		
PYL10: Arabidopsis thaliana PYL family protein PYL10, AT4G27920 (protein, listed as Arabidopsis thaliana) MNGDETKKVESEYIKKHHRHELVESQCSSTLVKHIKAPLHLVWSIVRRFDEPQKYKPFISRCVVQGKKLEVGSVREVDLKSGLPATKSTEVLEILDDNEHILGIRIVGGDHRLKNYSSTISLHSETIDGKTGTLAIESFVVDVPEGNTKEETCFFVEALIQCNLNSLADVTERLQAESMEKKI		20 nM	1200 nM
